This is an account of results in KR20160103767A (dated 2016).

The target in this experiment is T1, 재조합 인간 TFPI (Recombinant human Tissue Factor Pathway Inhibitor, full-form, Cat.No.TFPI-875H, Creative Biomart) (human, UniProt P10646 29-304).
T1 sequence: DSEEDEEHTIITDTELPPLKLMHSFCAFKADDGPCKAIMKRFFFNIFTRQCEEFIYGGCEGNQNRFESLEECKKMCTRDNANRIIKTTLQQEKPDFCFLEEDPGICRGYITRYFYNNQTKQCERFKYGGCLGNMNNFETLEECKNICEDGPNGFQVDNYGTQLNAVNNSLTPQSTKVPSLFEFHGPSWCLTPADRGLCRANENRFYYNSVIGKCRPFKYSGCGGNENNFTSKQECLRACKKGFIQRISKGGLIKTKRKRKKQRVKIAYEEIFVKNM
In words: cell-based or functional assay.

B1: 클론 T417 (anti-TFPI chimeric antibody) (antibody, V domains shown)
VH: EVHLVESGGDLVKPGGSLKLSCAASGFTFSSYAMSWVRQTPDKRLEWVATITTGGSYTYYPDSVKGRFTISRDNAKNTLYLQMSSLKSEDTAMYYCARQDGNFLMDYWGQGTTVTVSS
VL: not shown
With B1, the “FXa activity assay: TFPI inhibition (10nM comparison), relative to positive control (mAb2021)” value came to 77%; the “FXa activity assay: TFPI inhibition at 10nM antibody, relative to positive control” value turned out to be 72%; the “FXa activity assay: TFPI inhibition at 10nM antibody, relative to positive control (mAb2021)” value was found to be 78.4%; the “FXa activity assay: TFPI inhibition at 40nM antibody, relative to positive control” value was determined as 89%. Besides, the “TF/FVIIa/FXa complex assay: TFPI inhibition at 50nM antibody, relative to positive control (no antibody, no TFPI)” value turned out to be 100%; the “TF/FVIIa/FXa complex assay: TFPI inhibition at 100nM antibody, relative to positive control (no antibody, no TFPI)” value was 100%; the “TF/FVIIa/FXa complex assay: TFPI inhibition, relative to positive control (no antibody, no TFPI)” value came out at 100%.

B2: 클론 T308 (anti-TFPI chimeric antibody) (antibody, V domains shown)
VH: EVKLVESGGGLVKPGGSLKLSCAASGFTFSNYPMSWVRQTPEKRLEWVATISNSGSYTYYPDSVKGRFTISRDNAKNTLYLQMNSLRSEDTAMYYCARQVYGNYEDFDYWGQGTTLTVSS
VL: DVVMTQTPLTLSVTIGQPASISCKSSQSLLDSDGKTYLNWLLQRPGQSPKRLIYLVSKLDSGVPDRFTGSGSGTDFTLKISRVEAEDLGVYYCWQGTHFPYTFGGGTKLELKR
Consider B2, for which the “FXa activity assay: TFPI inhibition at 10nM antibody, relative to positive control” value is roughly 64%; the “FXa activity assay: TFPI inhibition at 40nM antibody, relative to positive control” value was 91%; the “TF/FVIIa/FXa complex assay: TFPI inhibition at 50nM antibody, relative to positive control (no antibody, no TFPI)” value was roughly 87%; the “TF/FVIIa/FXa complex assay: TFPI inhibition at 100nM antibody, relative to positive control (no antibody, no TFPI)” value amounted to 100%.
